For the series, the target named is angiogenin H114A (hAng, RNase 5) (Homo sapiens, UniProt P03950 25-147, H138A). The experiment in a line: X-ray crystallography; sequence-independent backbone contacts except Arg24 (C38, C32); RNA does not reach active site; crystals at 277 K; Complex: 20 mM Tris pH 8.0, 120 mM NaCl, on ice 30 min, RNA:protein 1.2:1; crystallization reservoir 200 mM NaCl, 20% PEG 6000, 100 mM HEPES pH 7.0, 277 K. The conditions noted are these: protein: recombinant; tags: none stated (pET-26b(+)); chain copies: 2; self-duplex of 2 identical strands, blunt; designed as stem-loop but duplex in crystal.
Chain of angiogenin H114A (hAng, RNase 5) (P03950 25-147 H138A): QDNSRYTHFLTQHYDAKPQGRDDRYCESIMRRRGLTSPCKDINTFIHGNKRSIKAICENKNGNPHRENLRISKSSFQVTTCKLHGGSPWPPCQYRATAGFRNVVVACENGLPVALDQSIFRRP

B1: N19-RNA duplex (dsRNA)
RNA 1: GCCCGCCUGUCACGCGGGC
RNA 2: GCCCGCCUGUCACGCGGGC
Regarding B1, the binding result is “binds”.

These data come from PMC9435672, “Structure of angiogenin dimer bound to double-stranded RNA”.
